{"source": "paper PMC9618391", "about": "(2022)"}
{"target": "T1, μ1A (AP1M1) expressed from cDNA in COS-7 cells, Q9BXS5", "T1 chain": "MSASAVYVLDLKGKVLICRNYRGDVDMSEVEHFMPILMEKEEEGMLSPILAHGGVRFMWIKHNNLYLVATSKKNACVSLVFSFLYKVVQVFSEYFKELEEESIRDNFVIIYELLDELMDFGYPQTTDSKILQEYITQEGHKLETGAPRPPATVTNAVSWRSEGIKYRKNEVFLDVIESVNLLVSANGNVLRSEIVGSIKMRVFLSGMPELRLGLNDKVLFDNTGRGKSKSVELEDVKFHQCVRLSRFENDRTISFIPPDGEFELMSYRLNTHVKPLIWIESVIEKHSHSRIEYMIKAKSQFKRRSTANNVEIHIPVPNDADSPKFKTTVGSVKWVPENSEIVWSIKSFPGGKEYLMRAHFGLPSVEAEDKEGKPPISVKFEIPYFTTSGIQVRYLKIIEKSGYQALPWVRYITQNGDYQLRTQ", "assay": "co-immunoprecipitation with Western blot quantification", "settings": "chain shown with the change; COS-7 cells cotransfected with hNIS and μ1A; IP α-μ1A, WB α-hNIS; parent: est. 100; read off a plot"}
{"binder": "wild-type human sodium/iodide symporter (hNIS), Q92911 L562A; L563A (protein) MEAVETGERPTFGAWDYGVFALMLLVSTGIGLWVGLARGGQRSAEDFFTGGRRLAALPVGLSLSASFMSAVQVLGVPSEAYRYGLKFLWMCLGQLLNSVLTALLFMPVFYRLGLTSTYEYLEMRFSRAVRLCGTLQYIVATMLYTGIVIYAPALILNQVTGLDIWASLLSTGIICTFYTAVGGMKAVVWTDVFQVVVMLSGFWVVLARGVMLVGGPRQVLTLAQNHSRINLMDFNPDPRSRYTFWTFVVGGTLVWLSMYGVNQAQVQRYVACRTEKQAKLALLINQVGLFLIVSSAACCGIVMFVFYTDCDPLLLGRISAPDQYMPLLVLDIFEDLPGVPGLFLACAYSGTLSTASTSINAMAAVTVEDLIKPRLRSLAPRKLVIISKGLSLIYGSACLTVAALSSLLGGGVLQGSFTVMGVISGPLLGAFILGMFLPACNTPGVLAGLGAGLALSLWVALGATLYPPSEQTMRVLPSSAARCVALSVNASGLLDPALLPANDSSRAPSSGMDASRPALADSFYAISYLYYGALGTLTTVLCGALISCLTGPTKRSTLAPGAAWWDLARQTASVAPKEEVAILDDNLVKGPEELPTGNKKPPGFLPTNEDRLFFLGQKELEGAGSWTPCVGHDGGRDQQETNL", "percent of parent (% Relative to hNIS WT)": 9}
{"binder": "wild-type human sodium/iodide symporter (hNIS), Q92911 L121A (protein) MEAVETGERPTFGAWDYGVFALMLLVSTGIGLWVGLARGGQRSAEDFFTGGRRLAALPVGLSLSASFMSAVQVLGVPSEAYRYGLKFLWMCLGQLLNSVLTALLFMPVFYRLGLTSTYEYAEMRFSRAVRLCGTLQYIVATMLYTGIVIYAPALILNQVTGLDIWASLLSTGIICTFYTAVGGMKAVVWTDVFQVVVMLSGFWVVLARGVMLVGGPRQVLTLAQNHSRINLMDFNPDPRSRYTFWTFVVGGTLVWLSMYGVNQAQVQRYVACRTEKQAKLALLINQVGLFLIVSSAACCGIVMFVFYTDCDPLLLGRISAPDQYMPLLVLDIFEDLPGVPGLFLACAYSGTLSTASTSINAMAAVTVEDLIKPRLRSLAPRKLVIISKGLSLIYGSACLTVAALSSLLGGGVLQGSFTVMGVISGPLLGAFILGMFLPACNTPGVLAGLGAGLALSLWVALGATLYPPSEQTMRVLPSSAARCVALSVNASGLLDPALLPANDSSRAPSSGMDASRPALADSFYAISYLYYGALGTLTTVLCGALISCLTGPTKRSTLAPGLLWWDLARQTASVAPKEEVAILDDNLVKGPEELPTGNKKPPGFLPTNEDRLFFLGQKELEGAGSWTPCVGHDGGRDQQETNL", "percent of parent (% Relative to hNIS WT)": 17}
{"binder": "wild-type human sodium/iodide symporter (hNIS), Q92911 Y118A (protein) MEAVETGERPTFGAWDYGVFALMLLVSTGIGLWVGLARGGQRSAEDFFTGGRRLAALPVGLSLSASFMSAVQVLGVPSEAYRYGLKFLWMCLGQLLNSVLTALLFMPVFYRLGLTSTAEYLEMRFSRAVRLCGTLQYIVATMLYTGIVIYAPALILNQVTGLDIWASLLSTGIICTFYTAVGGMKAVVWTDVFQVVVMLSGFWVVLARGVMLVGGPRQVLTLAQNHSRINLMDFNPDPRSRYTFWTFVVGGTLVWLSMYGVNQAQVQRYVACRTEKQAKLALLINQVGLFLIVSSAACCGIVMFVFYTDCDPLLLGRISAPDQYMPLLVLDIFEDLPGVPGLFLACAYSGTLSTASTSINAMAAVTVEDLIKPRLRSLAPRKLVIISKGLSLIYGSACLTVAALSSLLGGGVLQGSFTVMGVISGPLLGAFILGMFLPACNTPGVLAGLGAGLALSLWVALGATLYPPSEQTMRVLPSSAARCVALSVNASGLLDPALLPANDSSRAPSSGMDASRPALADSFYAISYLYYGALGTLTTVLCGALISCLTGPTKRSTLAPGLLWWDLARQTASVAPKEEVAILDDNLVKGPEELPTGNKKPPGFLPTNEDRLFFLGQKELEGAGSWTPCVGHDGGRDQQETNL", "percent of parent (% Relative to hNIS WT)": 80}
{"binder": "wild-type human sodium/iodide symporter (hNIS), Q92911 L583A (protein) MEAVETGERPTFGAWDYGVFALMLLVSTGIGLWVGLARGGQRSAEDFFTGGRRLAALPVGLSLSASFMSAVQVLGVPSEAYRYGLKFLWMCLGQLLNSVLTALLFMPVFYRLGLTSTYEYLEMRFSRAVRLCGTLQYIVATMLYTGIVIYAPALILNQVTGLDIWASLLSTGIICTFYTAVGGMKAVVWTDVFQVVVMLSGFWVVLARGVMLVGGPRQVLTLAQNHSRINLMDFNPDPRSRYTFWTFVVGGTLVWLSMYGVNQAQVQRYVACRTEKQAKLALLINQVGLFLIVSSAACCGIVMFVFYTDCDPLLLGRISAPDQYMPLLVLDIFEDLPGVPGLFLACAYSGTLSTASTSINAMAAVTVEDLIKPRLRSLAPRKLVIISKGLSLIYGSACLTVAALSSLLGGGVLQGSFTVMGVISGPLLGAFILGMFLPACNTPGVLAGLGAGLALSLWVALGATLYPPSEQTMRVLPSSAARCVALSVNASGLLDPALLPANDSSRAPSSGMDASRPALADSFYAISYLYYGALGTLTTVLCGALISCLTGPTKRSTLAPGLLWWDLARQTASVAPKEEVAIADDNLVKGPEELPTGNKKPPGFLPTNEDRLFFLGQKELEGAGSWTPCVGHDGGRDQQETNL", "percent of parent (% Relative to hNIS WT)": 60}
{"binder": "wild-type human sodium/iodide symporter (hNIS), Q92911 L594A (protein) MEAVETGERPTFGAWDYGVFALMLLVSTGIGLWVGLARGGQRSAEDFFTGGRRLAALPVGLSLSASFMSAVQVLGVPSEAYRYGLKFLWMCLGQLLNSVLTALLFMPVFYRLGLTSTYEYLEMRFSRAVRLCGTLQYIVATMLYTGIVIYAPALILNQVTGLDIWASLLSTGIICTFYTAVGGMKAVVWTDVFQVVVMLSGFWVVLARGVMLVGGPRQVLTLAQNHSRINLMDFNPDPRSRYTFWTFVVGGTLVWLSMYGVNQAQVQRYVACRTEKQAKLALLINQVGLFLIVSSAACCGIVMFVFYTDCDPLLLGRISAPDQYMPLLVLDIFEDLPGVPGLFLACAYSGTLSTASTSINAMAAVTVEDLIKPRLRSLAPRKLVIISKGLSLIYGSACLTVAALSSLLGGGVLQGSFTVMGVISGPLLGAFILGMFLPACNTPGVLAGLGAGLALSLWVALGATLYPPSEQTMRVLPSSAARCVALSVNASGLLDPALLPANDSSRAPSSGMDASRPALADSFYAISYLYYGALGTLTTVLCGALISCLTGPTKRSTLAPGLLWWDLARQTASVAPKEEVAILDDNLVKGPEEAPTGNKKPPGFLPTNEDRLFFLGQKELEGAGSWTPCVGHDGGRDQQETNL", "percent of parent (% Relative to hNIS WT)": 100}
{"binder": "wild-type human sodium/iodide symporter (hNIS), Q92911 Y120A (protein) MEAVETGERPTFGAWDYGVFALMLLVSTGIGLWVGLARGGQRSAEDFFTGGRRLAALPVGLSLSASFMSAVQVLGVPSEAYRYGLKFLWMCLGQLLNSVLTALLFMPVFYRLGLTSTYEALEMRFSRAVRLCGTLQYIVATMLYTGIVIYAPALILNQVTGLDIWASLLSTGIICTFYTAVGGMKAVVWTDVFQVVVMLSGFWVVLARGVMLVGGPRQVLTLAQNHSRINLMDFNPDPRSRYTFWTFVVGGTLVWLSMYGVNQAQVQRYVACRTEKQAKLALLINQVGLFLIVSSAACCGIVMFVFYTDCDPLLLGRISAPDQYMPLLVLDIFEDLPGVPGLFLACAYSGTLSTASTSINAMAAVTVEDLIKPRLRSLAPRKLVIISKGLSLIYGSACLTVAALSSLLGGGVLQGSFTVMGVISGPLLGAFILGMFLPACNTPGVLAGLGAGLALSLWVALGATLYPPSEQTMRVLPSSAARCVALSVNASGLLDPALLPANDSSRAPSSGMDASRPALADSFYAISYLYYGALGTLTTVLCGALISCLTGPTKRSTLAPGLLWWDLARQTASVAPKEEVAILDDNLVKGPEELPTGNKKPPGFLPTNEDRLFFLGQKELEGAGSWTPCVGHDGGRDQQETNL", "percent of parent (% Relative to hNIS WT)": 65}
{"binder": "wild-type human sodium/iodide symporter (hNIS), Q92911 L587A (protein) MEAVETGERPTFGAWDYGVFALMLLVSTGIGLWVGLARGGQRSAEDFFTGGRRLAALPVGLSLSASFMSAVQVLGVPSEAYRYGLKFLWMCLGQLLNSVLTALLFMPVFYRLGLTSTYEYLEMRFSRAVRLCGTLQYIVATMLYTGIVIYAPALILNQVTGLDIWASLLSTGIICTFYTAVGGMKAVVWTDVFQVVVMLSGFWVVLARGVMLVGGPRQVLTLAQNHSRINLMDFNPDPRSRYTFWTFVVGGTLVWLSMYGVNQAQVQRYVACRTEKQAKLALLINQVGLFLIVSSAACCGIVMFVFYTDCDPLLLGRISAPDQYMPLLVLDIFEDLPGVPGLFLACAYSGTLSTASTSINAMAAVTVEDLIKPRLRSLAPRKLVIISKGLSLIYGSACLTVAALSSLLGGGVLQGSFTVMGVISGPLLGAFILGMFLPACNTPGVLAGLGAGLALSLWVALGATLYPPSEQTMRVLPSSAARCVALSVNASGLLDPALLPANDSSRAPSSGMDASRPALADSFYAISYLYYGALGTLTTVLCGALISCLTGPTKRSTLAPGLLWWDLARQTASVAPKEEVAILDDNAVKGPEELPTGNKKPPGFLPTNEDRLFFLGQKELEGAGSWTPCVGHDGGRDQQETNL", "percent of parent (% Relative to hNIS WT)": 100}
